Test results as given in article PMC4351158 (Structure (London, England : 1993), 2015).

Target: the molecule itself
Experiment: crystal structure

B1: wild-type DegS (residues 27-355, without the membrane anchor) (enzyme, E. coli, UniProt P0AEE3 27-355, looked up)
chain: RSLNPLSTPQFDSTDETPASYNLAVRRAAPAVVNVYNRGLNTNSHNQLEIRTLGSGVIMDQRGYIITNKHVINDADQIIVALQDGRVFEALLVGSDSLTDLAVLKINATGGLPTIPINARRVPHIGDVVLAIGNPYNLGQTITQGIISATGRIGLNPTGRQNFLQTDASINHGNSGGALVNSLGELMGINTLSFDKSNDGETPEGIGFAIPFQLATKIMDKLIRDGRVIRGYIGIGGREIAPLHAQGGGIDQLQGIVVNEVSPDGPAANAGIQVNDLIISVDNKPAISALETMDQVAEIRPGSVIPVVVMRDDKQLTLQVTIQEYPATN
B1: binds.
